Data published in IntAct's records for PubMed 27284196.

B1: Transcriptional regulator LdrP (Thermus thermophilus (strain HB8 / ATCC 27634 / DSM 579)), Q53W63 (parent)
chain: MKRFARKETIYLRGEEARTLYRLEEGLVRVVELLPDGRLITLRHVLPGDYFGEEALEGKAYRYTAEAMTEAVVQGLEPRAMDHEALHRVARNLARQMRRVQAYEAHLQTGELRARIARYLLFLADTPLSARDRQGIYVTVSHEEIADATASIRESVSKVLADLRREGLIATAYRRVYLLDLAALEREAGSALEAA
partner: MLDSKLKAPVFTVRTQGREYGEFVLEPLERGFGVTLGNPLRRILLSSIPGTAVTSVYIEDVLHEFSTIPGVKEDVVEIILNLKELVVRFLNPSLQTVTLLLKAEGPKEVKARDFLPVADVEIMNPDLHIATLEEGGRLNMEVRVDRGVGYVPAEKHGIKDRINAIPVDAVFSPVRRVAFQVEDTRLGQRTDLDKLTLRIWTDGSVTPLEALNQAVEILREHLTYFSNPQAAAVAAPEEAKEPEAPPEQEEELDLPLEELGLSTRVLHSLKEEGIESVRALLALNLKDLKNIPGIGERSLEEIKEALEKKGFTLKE

Variants of: B1
Settings: with rpoa_thet8 rpoA

Variant	effect of a mutation on the interaction
MKRFARKETIYLRGEEARTLYRLEEGLVRVVELLPDGRLITLRHVLPGDYFGEEALEGKAYRYTAEAMTEAVVQGLEPRAMDHEALHRVARNLARQMRRVQAYEAHLQTGELRARIARYLLFLAKTPLSARDRQGIYVTVSHEEIADATASIRESVSKVLADLRREGLIATAYRRVYLLDLAALEREAGSALEAA	disrupting interaction strength
MKRFARKETIYLRGEEARTLYRLEEGLVRVVELLPDGRLITLRHVLPGDYFGEEALEGKAYRYTAEAMTEAVVQGLEPRAMDHEALHRVARNLARQMRRVQAYEAHLQTGELRARIARYLLFLADTPLSARDRQGIYVTVSHEEIADATASIRESVSKVLADLRREGLIATAYRRVYLLDLAALKREAGSALEAA	disrupting interaction strength
